The values that follow are results of earlier work, collected in publication PMC8625536.

The target in the series is Glu89 (UniProt position 105, IDALNENKVLV). As to conditions: Native folded protein; EF loop closed-to-open (Tanford) transition.

Consider “beta-lactoglobulin (called BBL in the article) (Bos taurus)”, for which the pKa (as a rule, the pH at which an ionisable group is half protonated) is recorded as approximately 7.3.
